One assay deals with MAb 400-1. Description: MAb inhibition ELISA; soluble inhibitor of MAb binding to coated hG17(1-9)-“Ala”-BSA. On the technique in general: An ELISA detects its analyte on a solid surface through an enzyme-linked reagent.
The target in a further assay is MAb 400-2. The description is as above.
A further assay concerns the target MAb 400-3. The assay is described as above.
Another assay deals with MAb 400-4. The assay is described as above.
The next assay addresses MAb 458-1. The experiment in a line: MAb inhibition ELISA; soluble inhibitor of MAb binding to the coated C-terminal target peptide-BSA.
A further assay has as its target MAb 458-2. The description is as above.
The next assay concerns the target MAb 458-3. Described as above.
A further assay has as its target MAb 458-4. The assay is described as above.
In a further assay the target is MAb 458-5. The assay is described as above.
For the next assay, the target named is MAb 445-1. Description: MAb inhibition ELISA; soluble inhibitor of MAb binding to coated hG34(16-34)-Gly 35-BSA.
The next assay addresses MAb 445-2. Described as above.
For another assay, the target named is MAb 401-2. Description: MAb inhibition ELISA; soluble inhibitor of MAb 401-2 binding to the coated G34 N-terminal target antigen.

Where no end group is shown, it is not given here. [ ]: non-standard residue; d: D form. pGlu = O=C1CC[C@@H](C(=O)O)N1

Among the data in patent US20070066809A1 are IC50 and % Inhibition values, retold here.

Regarding EGPWLEEEEEAYGWMDF (N-terminal pyroglutamic acid (pGlu); C-terminal Phe-NH2 (amide)) [human gastrin-17 (G17), mature amidated form], the IC50 in the assay with MAb 400-1 amounted to 2030 nM; in the assay with MAb 400-2, 85 nM; in the assay with MAb 400-3, 1080 nM; with MAb 400-4, 620 nM. The % Inhibition at 10 nmol/ml (250 pmoles/well) with MAb 458-1 was found to be 94.3%; with MAb 458-2, 86%; in the assay with MAb 458-3 it was 92.4%; with MAb 458-4, 88.4%; with MAb 458-5, 91.9%.

In the case of [pGlu]GPWLEEEEEAYGWMDFG [human glycine-extended gastrin-17 (G17-Gly)], the IC50 with MAb 400-1 stood at 1790 nM; with MAb 400-2, 77 nM; in the assay with MAb 400-3 it was 1390 nM; with MAb 400-4, 699 nM; with MAb 445-1 it was 700 nM; in the assay with MAb 445-2, 5000 nM. In the assay with MAb 458-1, the % Inhibition at 10 nmol/ml (250 pmoles/well) was 2.1%.

As to CPPPPSSYGWMDFG [hG17 (12-17)-Gly18 peptide (immunogen peptide …)], the IC50 worked out at 4000 nM with MAb 445-1 and 13000 nM in the assay with MAb 445-2.

B1: human gastrin-34 (G34), amidated (peptide)
peptide: [pGlu]LGPQGPPHLVADPSKKEGPWLEEEEEAYGWMDF-NH2
SMILES: CSCC[C@H](NC(=O)[C@H](Cc1c[nH]c2ccccc12)NC(=O)CNC(=O)[C@H](Cc1ccc(O)cc1)NC(=O)[C@H](C)NC(=O)[C@H](CCC(=O)O)NC(=O)[C@H](CCC(=O)O)NC(=O)[C@H](CCC(=O)O)NC(=O)[C@H](CCC(=O)O)NC(=O)[C@H](CCC(=O)O)NC(=O)[C@H](CC(C)C)NC(=O)[C@H](Cc1c[nH]c2ccccc12)NC(=O)[C@@H]1CCCN1C(=O)CNC(=O)[C@H](CCC(=O)O)NC(=O)[C@H](CCCCN)NC(=O)[C@H](CCCCN)NC(=O)[C@H](CO)NC(=O)[C@@H]1CCCN1C(=O)[C@H](CC(=O)O)NC(=O)[C@H](C)NC(=O)[C@@H](NC(=O)[C@H](CC(C)C)NC(=O)[C@H](Cc1c[nH]cn1)NC(=O)[C@@H]1CCCN1C(=O)[C@@H]1CCCN1C(=O)CNC(=O)[C@H](CCC(N)=O)NC(=O)[C@@H]1CCCN1C(=O)CNC(=O)[C@H](CC(C)C)NC(=O)[C@@H]1CCC(=O)N1)C(C)C)C(=O)N[C@@H](CC(=O)O)C(=O)N[C@@H](Cc1ccccc1)C(N)=O
For B1, the % Inhibition at 10 nmol/ml (250 pmoles/well) with MAb 458-1 is 93.5%; with MAb 458-2, 84.5%; with MAb 458-3, 90.7%; with MAb 458-4 it was 86.7%; with MAb 458-5, 91.5%. The molecule also returned an IC50 with MAb 401-2 of 700 nM.

Take EGPWLEKEEAAYGWMDF (ends and bridges not checked) [equine G17]: the concentration for half-maximal inhibition (IC50) with MAb 400-1 was found to be 1650 nM; with MAb 400-2, 86 nM; in the assay with MAb 400-3, 120 nM; in the assay with MAb 400-4, 1690 nM.

Consider DYMGWMDF-NH2 [CCK (26-33) unsulfated], for which the % Inhibition at 10 nmol/ml (250 pmoles/well) amounted to 93.8% in the assay with MAb 458-1; 84.8% with MAb 458-2; 84.8% with MAb 458-3; 83.4% with MAb 458-4; 92% with MAb 458-5.

On to [pGlu]GPWLEEEE (ends and bridges not checked) [hG17(1-9) N terminus peptide], for which the % Inhibition at 10 nmol/ml (250 pmoles/well) in the assay with MAb 458-3 stood at 1.2%.

As a reminder, the IC50 is the point on the concentration scale where inhibition reaches its midpoint. A low value points to inhibition by little substance. By % Inhibition is commonly meant how much of the control response was suppressed. A lower % Inhibition goes with a response near the control.
